The sequences below were run on Escherichia coli TOP10 (assay: shrunken log2 fold change of peptide-encoding DNA abundance (4.5 h post-induction vs induction); higher = less antimicrobial activity (less host growth inhibition)). Settings: time post-induction: 4.5 h; library: site-saturation at positions 5, 18, 19, 20.
For RRIRPRPPRLPRPRPRPLWVPRP, the “shrunken log2 fold change” value was 0.165. RRIRIRPPRLPRPRPRPWYGPRP was tested, and the “shrunken log2 fold change” value was -1.24. For RRIRFRPPRLPRPRPRPTSNPRP, the “shrunken log2 fold change” value was -0.617. For RRIRGRPPRLPRPRPRPEISPRP, the “shrunken log2 fold change” value was 1.5. In the case of RRIRLRPPRLPRPRPRPCHWPRP, the “shrunken log2 fold change” value is reported as -0.11. RRIRHRPPRLPRPRPRPHYYPRP was tested, and the “shrunken log2 fold change” value was -0.216. In the case of RRIRSRPPRLPRPRPRPDNDPRP, the “shrunken log2 fold change” value is reported as -0.0528. With RRIRERPPRLPRPRPRPFRHPRP the “shrunken log2 fold change” value was 0.0628. For RRIRRRPPRLPRPRPRPYAEPRP, the “shrunken log2 fold change” value was 0.132. In the case of RRIRMRPPRLPRPRPRPFMPPRP, the “shrunken log2 fold change” value is reported as -0.127. In the case of RRIRARPPRLPRPRPRPCFMPRP, the “shrunken log2 fold change” value is reported as -0.0304. RRIRTRPPRLPRPRPRPYSEPRP was tested, and the “shrunken log2 fold change” value was -0.212. In the case of RRIRKRPPRLPRPRPRPPDPPRP, the “shrunken log2 fold change” value is reported as 0.889. In the case of RRIRWRPPRLPRPRPRPDACPRP, the “shrunken log2 fold change” value is reported as 0.00464. For RRIRDRPPRLPRPRPRPHWLPRP, the “shrunken log2 fold change” value was 0.149. For RRIRVRPPRLPRPRPRPRQGPRP, the “shrunken log2 fold change” value was 0.317. RRIRIRPPRLPRPRPRPNNIPRP was tested, and the “shrunken log2 fold change” value was -0.937. In the case of RRIRCRPPRLPRPRPRPVCGPRP, the “shrunken log2 fold change” value is reported as 0.268. For RRIRGRPPRLPRPRPRPVMMPRP, the “shrunken log2 fold change” value was 0.0154. For RRIRIRPPRLPRPRPRPTWLPRP, the “shrunken log2 fold change” value was -0.124. For RRIRHRPPRLPRPRPRPNAKPRP, the “shrunken log2 fold change” value was -0.117. For RRIRMRPPRLPRPRPRPGSCPRP, the “shrunken log2 fold change” value was 0.29. In the case of RRIRSRPPRLPRPRPRPWCVPRP, the “shrunken log2 fold change” value is reported as -0.22. With RRIRERPPRLPRPRPRPDMGPRP the “shrunken log2 fold change” value was -0.265. RRIRSRPPRLPRPRPRPFNPPRP was tested, and the “shrunken log2 fold change” value was -0.28. For RRIRNRPPRLPRPRPRPNHDPRP, the “shrunken log2 fold change” value was -0.602. With RRIRRRPPRLPRPRPRPWDLPRP the “shrunken log2 fold change” value was -0.04. RRIRARPPRLPRPRPRPYEHPRP was tested, and the “shrunken log2 fold change” value was -0.25. RRIRTRPPRLPRPRPRPGQEPRP was tested, and the “shrunken log2 fold change” value was -0.184. RRIRARPPRLPRPRPRPIHAPRP was tested, and the “shrunken log2 fold change” value was 0.0915. For RRIRSRPPRLPRPRPRPRWNPRP, the “shrunken log2 fold change” value was 0.0205. For RRIRERPPRLPRPRPRPRRMPRP, the “shrunken log2 fold change” value was 0.119. RRIRGRPPRLPRPRPRPFASPRP was tested, and the “shrunken log2 fold change” value was 0.215. In the case of RRIRLRPPRLPRPRPRPCAFPRP, the “shrunken log2 fold change” value is reported as -0.295. With RRIRARPPRLPRPRPRPYNNPRP the “shrunken log2 fold change” value was -0.817. RRIRVRPPRLPRPRPRPKVSPRP was tested, and the “shrunken log2 fold change” value was -0.0522. RRIRRRPPRLPRPRPRPDFLPRP was tested, and the “shrunken log2 fold change” value was 1.31. RRIRNRPPRLPRPRPRPEGCPRP was tested, and the “shrunken log2 fold change” value was -0.0205. In the case of RRIRFRPPRLPRPRPRPMPWPRP, the “shrunken log2 fold change” value is reported as 0.157. For RRIRERPPRLPRPRPRPHCHPRP, the “shrunken log2 fold change” value was -0.657. For RRIRFRPPRLPRPRPRPKPDPRP, the “shrunken log2 fold change” value was 0.463. With RRIRNRPPRLPRPRPRPKTWPRP the “shrunken log2 fold change” value was 0.0949. With RRIRMRPPRLPRPRPRPCFSPRP the “shrunken log2 fold change” value was -0.141. In the case of RRIRRRPPRLPRPRPRPADYPRP, the “shrunken log2 fold change” value is reported as -0.0547. With RRIRFRPPRLPRPRPRPMLPPRP the “shrunken log2 fold change” value was -0.184. With RRIRDRPPRLPRPRPRPEPPPRP the “shrunken log2 fold change” value was 1.06. With RRIRKRPPRLPRPRPRPGHLPRP the “shrunken log2 fold change” value was 0.0738. RRIRIRPPRLPRPRPRPCMGPRP was tested, and the “shrunken log2 fold change” value was -1.07. For RRIRARPPRLPRPRPRPCHVPRP, the “shrunken log2 fold change” value was -0.0999. RRIRWRPPRLPRPRPRPFISPRP was tested, and the “shrunken log2 fold change” value was -0.174. RRIRLRPPRLPRPRPRPMQLPRP was tested, and the “shrunken log2 fold change” value was -0.21. In the case of RRIRPRPPRLPRPRPRPRASPRP, the “shrunken log2 fold change” value is reported as 0.548. RRIRRRPPRLPRPRPRPMWMPRP was tested, and the “shrunken log2 fold change” value was 0.0619. In the case of RRIRFRPPRLPRPRPRPSIEPRP, the “shrunken log2 fold change” value is reported as -0.342. For RRIRKRPPRLPRPRPRPFMWPRP, the “shrunken log2 fold change” value was -0.078. In the case of RRIRNRPPRLPRPRPRPMMMPRP, the “shrunken log2 fold change” value is reported as -0.0535. In the case of RRIRWRPPRLPRPRPRPKPRPRP, the “shrunken log2 fold change” value is reported as 0.236. In the case of RRIRARPPRLPRPRPRPRYFPRP, the “shrunken log2 fold change” value is reported as -0.0939. RRIRYRPPRLPRPRPRPVAYPRP was tested, and the “shrunken log2 fold change” value was -0.926. In the case of RRIRQRPPRLPRPRPRPCINPRP, the “shrunken log2 fold change” value is reported as -0.0449. In the case of RRIRNRPPRLPRPRPRPVLSPRP, the “shrunken log2 fold change” value is reported as 0.0114. With RRIRWRPPRLPRPRPRPRSDPRP the “shrunken log2 fold change” value was 0.618. RRIRFRPPRLPRPRPRPYKHPRP was tested, and the “shrunken log2 fold change” value was -0.911. For RRIRYRPPRLPRPRPRPCMFPRP, the “shrunken log2 fold change” value was -0.981. For RRIRMRPPRLPRPRPRPMHVPRP, the “shrunken log2 fold change” value was -0.207. In the case of RRIRGRPPRLPRPRPRPFFRPRP, the “shrunken log2 fold change” value is reported as 0.211. With RRIRVRPPRLPRPRPRPSMRPRP the “shrunken log2 fold change” value was 0.477. RRIRARPPRLPRPRPRPQLFPRP was tested, and the “shrunken log2 fold change” value was 0.18. RRIRERPPRLPRPRPRPEVKPRP was tested, and the “shrunken log2 fold change” value was -0.0524. With RRIRQRPPRLPRPRPRPDFDPRP the “shrunken log2 fold change” value was -0.0668. RRIRHRPPRLPRPRPRPFKFPRP was tested, and the “shrunken log2 fold change” value was -0.376. For RRIRIRPPRLPRPRPRPNIYPRP, the “shrunken log2 fold change” value was -0.111. RRIRIRPPRLPRPRPRPLCYPRP was tested, and the “shrunken log2 fold change” value was -1.07. With RRIRWRPPRLPRPRPRPGAPPRP the “shrunken log2 fold change” value was 0.641. With RRIRVRPPRLPRPRPRPAWCPRP the “shrunken log2 fold change” value was 0.211.
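Note: peptides expressed intracellularly from a pBAD plasmid library in pooled LB shake-flask culture, induced with 0.3% L-arabinose, DNA abundance read by NGS, three biological replicates, DESeq2 with apeglm shrinkage.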
